Data reported in patent US20030017489.

Target: recombinant Histone H3

B1: hCARM-1 (SEQ ID NO:9) (protein)
chain: MAAAAAAVGPGAGGAGSAVPGGAGPCATVSVFPGARLLTIGDANGEIQRHAEQQALRLEVRAGPDSAGIALYSHEDVCVFKCSVSRETECSRVGKQSFIITLGCNSVLIQFATPNDFCSFYNILKTCRGHTLERSVFSERTEESSAVQYFQFYGYLSQQQNMMQDYVRTGTYQRAILQNHTDFKDKIVLDVGCGSGILSFFAAQAGARKIYAVEASTMAQHAEVLVKSNNLTDRIVVIPGKVEEVSLPEQVDIIISEPMGYMLFNERMLESYLHAKKYLKPSGNMFPTIGDVHLAPFTDEQLYMEQFTKANFWYQPSFHGVDLSALRGAAVDEYFRQPVVDTFDIRILMAKSVKYTVNFLEAKEGDLHRIEIPFKFHMLHSGLVHGLAFWFDVAFIGSIMTVWLSTAPTEPLTHWYQVRCLFQSPLFAKAGDTLSGTCLLIANKRQSYDISIVAQVDQTGSKSSNLLDLKNPFFRYTGTTPSPPPGSHYTSPSENMWNTGSTYNLSSGMAVAGMPTAYDLSSVIASGSSVGHNNLIPLANTGIVNHTHSRMGSIMSTGIVQGSSGAQGSGGGSTSAHYAVNSQFTMGGPAISMASPMSIPTNTMHYGS
**Q.** For B1, which “methylation of Histone H3 (in vitro methylation reaction, SDS-PAGE, exposed to film)” value is on record?
**A.** Our experiments showed that hCARM-1 methylates Histone H3 efficiently
